Experimental data reported in patent US9364516B2, “Treatment of fibrosis-related disorders using fibronectin binding proteins and polypeptides” (priority 2010, dated 2016).

Legend:
left carotid artery = assay: Detection of Texas-Red conjugated peptides in vessel wall; type: in vivo, mouse; settings: Texas-Red conjugate 20 μM in pluronic gel, periadventitial
Procedure: FIGS. 8A-8E provide visualization of pUR4 in the vessel wall. Texas-Red (TR) conjugated pUR4 (20 μM) was embedded in pluronic gel and periadventitially delivered to the left carotid artery following ligation surgery as described infra. The right carotid artery from the same animal was used as a control. Mice were sacrificed 1, 3, and 7 days after surgery, and the carotid arteries were harvested and flash frozen. Longitudinal sections (20 μm) were immunostained with an anti-TR antibody. Representative images from the right common carotid artery (FIG. 8A), and left common carotid artery of 1 day (FIG. 8B), 3 day (FIG. 8C), and 7 day (FIG. 8D) animals are shown. The percentage area which is TR (+) (FIG. 8E) was assessed in the media of the vessels. Media=M; adventitia=Ad; lumen=L. Bar, 20 μm.
pUR4 and III-11C were conjugated to Texas-Red, as per the manufacturer's instructions (Molecular Probes/Invitrogen). 20 μM Texas-Red (TR) conjugated proteins were embedded in pluronic gel and applied to the vessel following ligation surgery. […] For quantitatively evaluating the efficacy of peptide delivery to the common carotid artery, 15-18 fields of view in the media from 2-3 mice at each time point were analyzed. The TR (+) areas were quantitated using an automated programmed segmentation procedure in ImagePro. The percentage of TR (+) area to the total medial area was determined.

fibrinogen = target: T1, fibrinogen (Homo sapiens, UniProt P02671+P02675+P02679); assay: ELISA binding of pUR4 to ECM proteins: fibrinogen; settings: plates coated 10 μg/mL, FIG. 7
T1 construct: purchased Enzyme Research Laboratories (South Bend, Ind.)
T1 sequence (P02671 20-629 limits assumed): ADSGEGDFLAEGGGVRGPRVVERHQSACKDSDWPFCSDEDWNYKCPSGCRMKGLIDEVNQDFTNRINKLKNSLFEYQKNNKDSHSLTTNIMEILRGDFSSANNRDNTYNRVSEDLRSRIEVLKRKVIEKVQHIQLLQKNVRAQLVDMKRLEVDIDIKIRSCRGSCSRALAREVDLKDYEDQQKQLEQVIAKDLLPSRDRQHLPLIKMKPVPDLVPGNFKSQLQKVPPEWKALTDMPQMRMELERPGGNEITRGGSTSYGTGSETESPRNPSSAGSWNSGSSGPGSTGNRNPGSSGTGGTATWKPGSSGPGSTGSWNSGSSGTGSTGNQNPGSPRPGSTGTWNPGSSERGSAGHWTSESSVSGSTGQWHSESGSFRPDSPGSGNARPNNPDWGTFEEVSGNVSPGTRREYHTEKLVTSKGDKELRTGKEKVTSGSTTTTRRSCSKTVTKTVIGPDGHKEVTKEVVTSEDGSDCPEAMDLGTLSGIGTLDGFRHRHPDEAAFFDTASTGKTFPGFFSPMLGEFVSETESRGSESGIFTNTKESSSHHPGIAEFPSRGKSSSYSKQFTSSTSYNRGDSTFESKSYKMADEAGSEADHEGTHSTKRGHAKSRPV
T1 sequence (P02675 31-491): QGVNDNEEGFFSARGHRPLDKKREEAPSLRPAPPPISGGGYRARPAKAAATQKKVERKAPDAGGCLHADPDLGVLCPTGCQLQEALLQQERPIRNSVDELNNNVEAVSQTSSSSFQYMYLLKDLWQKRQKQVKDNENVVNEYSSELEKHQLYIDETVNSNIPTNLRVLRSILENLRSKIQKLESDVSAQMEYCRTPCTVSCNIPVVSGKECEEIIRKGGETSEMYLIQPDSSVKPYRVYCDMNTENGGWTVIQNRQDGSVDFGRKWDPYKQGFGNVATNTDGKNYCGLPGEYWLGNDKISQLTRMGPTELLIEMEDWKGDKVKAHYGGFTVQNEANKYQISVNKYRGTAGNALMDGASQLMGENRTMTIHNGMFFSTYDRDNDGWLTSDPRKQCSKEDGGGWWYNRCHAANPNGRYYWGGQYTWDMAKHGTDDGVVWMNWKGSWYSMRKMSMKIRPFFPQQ
T1 sequence (P02679 27-453): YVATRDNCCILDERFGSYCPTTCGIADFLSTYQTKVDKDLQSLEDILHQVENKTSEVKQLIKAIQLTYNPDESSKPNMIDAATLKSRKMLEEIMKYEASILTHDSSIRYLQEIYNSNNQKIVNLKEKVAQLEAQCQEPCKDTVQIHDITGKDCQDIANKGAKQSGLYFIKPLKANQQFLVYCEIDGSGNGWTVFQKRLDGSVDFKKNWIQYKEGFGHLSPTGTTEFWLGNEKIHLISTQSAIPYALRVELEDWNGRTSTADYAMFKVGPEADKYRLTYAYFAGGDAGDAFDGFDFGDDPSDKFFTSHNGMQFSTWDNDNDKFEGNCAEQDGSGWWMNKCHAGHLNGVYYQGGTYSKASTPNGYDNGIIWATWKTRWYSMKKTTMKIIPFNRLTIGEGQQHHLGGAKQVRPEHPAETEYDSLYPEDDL
Procedure: FIG. 7 is a graph depicting the binding of pUR4 to ECM Proteins. 96-well plates were coated with 10 μg/mL type I collagen (COL), denatured type I collagen (dCOL), fibronectin (FN), laminin (LN), vitronectin (VN), or fibrinogen (FG) at 4° C. overnight. pUR4 was added to the wells and serially diluted. Bound pUR4 was detected as described herein. Measurements were done at 405 nm on a Wallac 1420 multilabel counter. Data represents the average of duplicate determinations, and the error bars the range.
96-well tissue culture plates were coated with 10 μg/mL type I collagen, fibronectin, laminin, fibrinogen, or vitronectin overnight at 4° C. Denatured collagens were generated as described (George et al., “Fibronectins are Essential for Heart and Blood Vessel Morphogenesis but are Dispensable for Initial Specification of Precursor Cells,” Blood 90:3073-3081 (1997), which is hereby incorporated by reference in its entirety). Plates were blocked with 1% bovine serum albumin (BSA) in Tris buffered saline (TBS) for 1 hour, then washed with TBS. pUR4 was serially diluted into coated wells, then incubated at room temperature for 90 min. Wells were washed with TBS containing 0.1% Tween 20. […] After washing, peroxidase activity was quantified by using 2,2′-azino-bis-(3-ethylbenthiazoline-[…]). […]

B1: pUR4: 49-mer peptide derived from the bacterial F1 adhesin, His tagged, SEQ ID NO:1; class I fibronectin polymerization inhibitor (peptide)
chain: MRGSHHHHHHGSKDQSPLAGESGETEYITEVYGNQQNPVDIDKKLPNETGFSGNMVETEDTKLN
modifications: His tag; Bacterial adhesin derived peptide pUR4
peptide detected in the vessel wall (media and adventitia) (left carotid artery; 1 to 3 days after application): readily detected
levels of the peptide in the vessel wall by day 7 (left carotid artery; day 7): significantly reduced
binding to fibrinogen (fibrinogen): does not bind
